Source: patent US20030194404A1 (SCHERING, published 2003)

What was measured:
recombinant human IL-5 [1] = target: T1, recombinant human IL-5 (human, UniProt P05113 20-134); experiment: cell-based or functional assay
T1 sequence (looked up): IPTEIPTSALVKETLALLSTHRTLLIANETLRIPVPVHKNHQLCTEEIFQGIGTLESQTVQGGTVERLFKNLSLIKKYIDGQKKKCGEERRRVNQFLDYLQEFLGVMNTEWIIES

murine IL-5 = target: T2, murine IL-5 (murine, UniProt P04401 21-133); experiment: cell-based or functional assay
T2 sequence (looked up): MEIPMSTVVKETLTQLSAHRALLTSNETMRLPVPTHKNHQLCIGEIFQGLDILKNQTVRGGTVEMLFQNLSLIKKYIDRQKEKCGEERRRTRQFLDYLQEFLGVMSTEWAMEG

recombinant human IL-5 [2] = target: T1, recombinant human IL-5; experiment: KinExA 3000 kinetic exclusion assay, Dual Curve (Unknown Antigen) method
Description: (§1) The KinExA uses the principle of the Kinetic Exclusion Assay method based on measuring the concentration of uncomplexed antibody in a mixture of antibody, antigen and antibody-antigen complex. The concentration of free antibody is measured by exposing the mixture to a solid-phase immobilized antigen for a very brief period of time. In practice, this is accomplished by flowing the solution phase antigen-antibody mixture past antigen coated particles trapped in a flow cell. Data, generated by the instrument are analyzed using custom software. Equilibrium constants are calculated using a mathematical theory based on the following assumptions:
(§2) All experimental procedures were performed according to the KinExA 3000™ Manual. All runs were done in duplicate.
(§3) The antibody molecular weight used for calculation was 150 Kda.

recombinant human IL-5 [3] = target: T1, recombinant human IL-5; experiment: KinExA 3000 kinetic exclusion assay, Dual Curve analysis (Standard mode), 0.1 and 0.01 nM antibody
Description: as §1, §2, §3

B1: human monoclonal antibody 20.13.3 (antibody, human IgG4, kappa, V domains shown)
VH: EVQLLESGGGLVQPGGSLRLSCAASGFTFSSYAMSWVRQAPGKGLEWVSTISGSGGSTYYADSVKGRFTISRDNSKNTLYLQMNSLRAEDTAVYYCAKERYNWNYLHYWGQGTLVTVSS
VL: DIQMTQSPSSLSASVGDRVTITCQASQDIINYLNWYQQKPGKAPKLLIYSASNLETRVPSRFSGSGSGTDFTFTISSLQPEDIATYYCQQYDNHPLTFGGGTKVEIRR
Question: What does the source list for B1?
Answer: IC50, TF-1 anti-proliferation assay (recombinant human IL-5 [1]): 0.25 nM; IC50, TF-1 anti-proliferation assay (murine IL-5): 0.38 nM; Kd (recombinant human IL-5 [2]): 0.0195 nM; Kd (recombinant human IL-5 [3]): 0.015 nM
